The numbers were not newly measured in publication PMC10136230, which cites them from elsewhere.

The series has as its target AGE-albumin (UniProt P02768). Nature of the series: 125I-labeled ligand binding.

By Kd is commonly meant the constant that tells how readily two partners part at equilibrium. Consider RAGE (from UniProt Q15109), for which the Kd was 200 nM.
